Assay results as given in paper doi:10.1101/2022.05.06.490478 (bioRxiv, 2022).

B1: C. elegans TMC-1 with C-terminal 3C site-mVenus-3xFLAG (tmc-1::mVenus knock-in) (natural protein, UniProt D3KZG3 1-1285, looked up)
chain: MQEAARRASLRKEHTPTNEKFGDLSKQDSLGERASSKLTLDDELYDILYAFGETDAFINKGDKQRETDEDGNPLTRQALLERIRQKKEVIGKLRCQAWSMTRKRRTLKLAQKYLEQHESKVSRSHLYMEEMRKRARLMKRSFSNFKTYLIPWESKIKRIESHFGSVVSSYFTFLRWIVFVNIMITLIALVFVVLPETLADSVANEGRFNRTKTRKQIPANERVHADELAVVWHYDGYLRYSPLFYGYYSDDPFLGNKIKYALPLAYFMVTLTIFAYSFFAILRKMAANARMSKLSGSKAEQYIFNWKLFTGWDYTIGNSETASNTVMAVVIKLRESIADIKKDAHGKFRLLQFSLRVFANIIICAMLGFSIYCIIFAVQKSQVQDDGNLFTKNQVPSVVSTITHVFPMIFDLIGKMENYHPRTALRAHLGRVLILYTVNYITLIFALFEKMTALRDRVNSTSTSSSHRTKRQQGGWNPNMQRPPPYASRAEVRQMSDFLAANTRRFQTVSQRTTRSVTTPFTVAPQFGPFNVNNPNAVFHNGTHSTSFESQILGPKALPIFTPPPRKYPGFTPGNVGQQFGGPDFPRNQVYTKSTPLPRVRTKPPWVYTTTHPPLVQNRAMTTTMSKSAKKGNSKNLDDDILLSNETIQMSEAALRRNHDGHNNDICWETIIGQEIVKLVTMDLIFTILSILVIDLFRGLWIKYCSSWWCWDIETTFPEYGEFKVAENVLHIINNQGMIWLGLFFAPLLPAINNIKLIILMYIRGWAVMTCNVPAREIFRASRSSNFYLGILLIWLLLCTLPVGFVIASMSPSRSCGPFARYQHFYTVVTREIEKRVDQTVLSYIRHIASPGVVIPIILFLILIIYFLFSLVRGLREANTDLQAQLVHERTEEKKKIFELAGGKKNKFEKDRDKKRSNDYIPLIEQRRREPWRQYHEMEADHALASDSSEESDINEDEDDERQPLTAYPLRAIETPPETLQVTAFHPSLGSLIENREMEDEESASGDQLPMIHKSVSFQGPSHMQMRQSISTESCSQISRSAIQVATPEEIRALLRPYLEAKYGIPYQHGIKSFPIDVHTPPNNTPSRRSSKYNSFVSLYEHTRDDHKNFVASTIKETDEDPGKSDKKQTSSKDVAPDFMPWPSADEARALREKMKSKTPLMLTKTTVEEKPKGGKSSESEFRPPVPIHRKYNIQTTEEENEEEETDSAPESSKKRFRISVSPTKTIAPASASRAQHKIVSQASSSSSIPHGRQPDPNKKASLVLPPLRAPRVQFDEDDSPRQID
B2: C. elegans TMC-1 (pore-forming subunit of the native TMC-1 complex), after removal of mVenus-3xFLAG by 3C protease (natural protein, UniProt D3KZG3 1-1285, looked up)
chain: B1 chain
modifications: N-linked glycan at N209

What was measured:
single molecule pulldown = molecular target: the molecule itself; assay: single molecule pulldown
cryo-EM structure = molecular target: the molecule itself; assay: cryo-EM structure

Protein	stoichiometry N (single molecule pulldown)	stoichiometry N (cryo-EM structure)
B1	2	
B2		2
